# Results taken from patent publication US9029508 (dated 2015).
# “And” between values parts separate entries of the source, which are not always exact repeats. Equal entries are not always repeated. Where two headings read alike, the source gives them in different places.
# T1: CD19 (human, UniProt P15391)
# T1 chain: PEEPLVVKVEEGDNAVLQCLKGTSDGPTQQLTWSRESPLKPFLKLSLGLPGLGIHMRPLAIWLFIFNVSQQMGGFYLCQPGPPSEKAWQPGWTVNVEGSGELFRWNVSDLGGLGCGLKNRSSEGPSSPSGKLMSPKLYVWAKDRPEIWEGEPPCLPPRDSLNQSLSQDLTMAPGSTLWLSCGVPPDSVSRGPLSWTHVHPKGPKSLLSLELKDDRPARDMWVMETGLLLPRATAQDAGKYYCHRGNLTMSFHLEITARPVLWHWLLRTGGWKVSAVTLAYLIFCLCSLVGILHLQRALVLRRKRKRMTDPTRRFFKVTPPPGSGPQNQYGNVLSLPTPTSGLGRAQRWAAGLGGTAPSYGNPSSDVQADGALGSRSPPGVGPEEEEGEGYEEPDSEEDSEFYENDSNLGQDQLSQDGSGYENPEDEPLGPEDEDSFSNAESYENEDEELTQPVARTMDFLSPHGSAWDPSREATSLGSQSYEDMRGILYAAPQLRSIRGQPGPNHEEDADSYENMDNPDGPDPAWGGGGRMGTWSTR
# Tests used:
# IGF1R [1] = target: T2, IGF1R (human, UniProt P08069); assay: SPR
# IGF1R [2] = target: T2, IGF1R; assay: ELISA
# IGF1R [3] = target: T2, IGF1R; assay: ELISA; remark: listed apart in the source
# CD40 = CD40 (human, UniProt P25942); assay: ELISA
# ErbB3 [4] = target: T3, ErbB3 (human, UniProt P21860); assay: SPR
# ErbB3 [5] = target: T3, ErbB3; assay: ELISA
# ErbB3 [6] = target: T3, ErbB3; assay: ELISA; remark: listed apart in the source
# CD19 = target: T1, CD19; assay: ELISA
# IGF2 [7] = target: T4, IGF2 (human, UniProt P01344); assay: ELISA
# IGF2 [8] = target: T4, IGF2; assay: ELISA; remark: listed apart in the source
# IGF2 [9] = target: T4, IGF2; assay: SPR
# IGF1 [10] = target: T5, IGF1 (human, UniProt P05019); assay: ELISA
# IGF1 [11] = target: T5, IGF1; assay: SPR
# IGF1 [12] = target: T5, IGF1; assay: ELISA; remark: listed apart in the source
# DLL4 [13] = target: T6, DLL4 (human, UniProt Q9NR61); assay: ELISA
# DLL4 [14] = target: T6, DLL4; assay: SPR
# DLL4 [15] = target: T6, DLL4; assay: competition
# T6 sequence (Q9NR61 27-524): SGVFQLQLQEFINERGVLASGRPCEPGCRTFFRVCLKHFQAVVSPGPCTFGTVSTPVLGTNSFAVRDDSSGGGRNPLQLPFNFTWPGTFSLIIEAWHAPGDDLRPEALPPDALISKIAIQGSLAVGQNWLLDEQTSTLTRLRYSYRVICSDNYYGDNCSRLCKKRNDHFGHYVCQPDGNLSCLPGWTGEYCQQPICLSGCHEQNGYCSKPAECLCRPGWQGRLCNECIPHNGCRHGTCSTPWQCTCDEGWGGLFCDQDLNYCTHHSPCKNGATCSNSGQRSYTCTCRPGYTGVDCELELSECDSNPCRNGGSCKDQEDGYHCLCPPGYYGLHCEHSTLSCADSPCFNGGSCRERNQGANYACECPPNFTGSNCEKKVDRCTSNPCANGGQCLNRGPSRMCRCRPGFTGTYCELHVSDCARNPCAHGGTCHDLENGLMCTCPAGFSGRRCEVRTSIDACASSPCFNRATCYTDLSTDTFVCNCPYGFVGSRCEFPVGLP
# Sequence of CD40 (P25942 21-193): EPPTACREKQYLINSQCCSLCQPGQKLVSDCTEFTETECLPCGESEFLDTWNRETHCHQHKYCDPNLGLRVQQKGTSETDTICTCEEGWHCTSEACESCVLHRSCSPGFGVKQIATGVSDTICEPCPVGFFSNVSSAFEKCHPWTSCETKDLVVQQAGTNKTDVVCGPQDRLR
binder,measurement,setting,value
"AB011 (antibody, V domains shown) VH: EVQLLESGGGLVQPGGSLRLSCTASGFTFSSYAMNWVRQAPGKGLEWVSAISGSGGTTFYADSVKGRFTISRDNSRTTLYLQMNSLRAEDTAVYYCAKDLGWSDSYYYYYGMDVWGQGTTVTVSS VL: DIQMTQFPSSLSASVGDRVTITCRASQGIRNDLGWYQQKPGKAPKRLIYAASRLHRGVPSRFSGSGSGTEFTLTISSLQPEDFATYYCLQHNSYPCSFGQGTKLEIKR",Kd,IGF1R [1],0.848 nM
same,EC50,IGF1R [2],0.28 nM
same,EC50,IGF1R [3],0.3 nM
"DVD022 IGF1R arm (antibody, V domains shown, DVD-Ig outer) VH: EVQLLESGGGLVQPGGSLRLSCTASGFTFSSYAMNWVRQAPGKGLEWVSAISGSGGTTFYADSVKGRFTISRDNSRTTLYLQMNSLRAEDTAVYYCAKDLGWSDSYYYYYGMDVWGQGTTVTVSS VL: DIQMTQFPSSLSASVGDRVTITCRASQGIRNDLGWYQQKPGKAPKRLIYAASRLHRGVPSRFSGSGSGTEFTLTISSLQPEDFATYYCLQHNSYPCSFGQGTKLEIKR",Kd,IGF1R [1],0.778 nM
same,EC50,IGF1R [2],0.26 nM
same,EC50,IGF1R [3],0.3 nM
"DVD032 IGF1R arm (antibody, V domains shown, DVD-Ig outer) VH: EVQLLESGGGLVQPGGSLRLSCTASGFTFSSYAMNWVRQAPGKGLEWVSAISGSGGTTFYADSVKGRFTISRDNSRTTLYLQMNSLRAEDTAVYYCAKDLGWSDSYYYYYGMDVWGQGTTVTVSS VL: DIQMTQFPSSLSASVGDRVTITCRASQGIRNDLGWYQQKPGKAPKRLIYAASRLHRGVPSRFSGSGSGTEFTLTISSLQPEDFATYYCLQHNSYPCSFGQGTKLEIKR",Kd,IGF1R [1],0.829 nM
same,EC50,IGF1R [2],0.16 nM
same,EC50,IGF1R [3],0.2 nM
"DVD010 CD40 arm (antibody, V domains shown, DVD-Ig outer) VH: QVQLVESGGGVVQPGRSLRLSCAASGFTFSSYGMHWVRQAPGKGLEWVAVISYEESNRYHADSVKGRFTISRDNSKITLYLQMNSLRTEDTAVYYCARDGGIAAPGPDYWGQGTLVTVSS VL: DIVMTQSPLSLTVTPGEPASISCRSSQSLLYSNGYNYLDWYLQKPGQSPQVLISLGSNRASGVPDRFSGSGSGTDFTLKISRVEAEDVGVYYCMQARQTPFTFGPGTKVDIRR",EC50,CD40,0.82 nM
"AB009 (antibody, V domains shown) VH: QVQLVESGGGVVQPGRSLRLSCAASGFTFSSYGMHWVRQAPGKGLEWVAVISYEESNRYHADSVKGRFTISRDNSKITLYLQMNSLRTEDTAVYYCARDGGIAAPGPDYWGQGTLVTVSS VL: DIVMTQSPLSLTVTPGEPASISCRSSQSLLYSNGYNYLDWYLQKPGQSPQVLISLGSNRASGVPDRFSGSGSGTDFTLKISRVEAEDVGVYYCMQARQTPFTFGPGTKVDIRR",EC50,CD40,0.99 nM
"DVD009 CD40 arm (antibody, V domains shown, DVD-Ig inner) VH: QVQLVESGGGVVQPGRSLRLSCAASGFTFSSYGMHWVRQAPGKGLEWVAVISYEESNRYHADSVKGRFTISRDNSKITLYLQMNSLRTEDTAVYYCARDGGIAAPGPDYWGQGTLVTVSS VL: DIVMTQSPLSLTVTPGEPASISCRSSQSLLYSNGYNYLDWYLQKPGQSPQVLISLGSNRASGVPDRFSGSGSGTDFTLKISRVEAEDVGVYYCMQARQTPFTFGPGTKVDIRR",EC50,CD40,3.55 nM
"AB063 (antibody, V domains shown) VH: EVQLVESGGGLVQPGGSLRLSCAASGFTFSIYSMNWVRQAPGKGLEWVSYISSSSSTIYYADSVKGRFTISRDNAKNSLYLQMNSLRDEDTAVYYCARDRGDFDAFDIWGQGTMVTVSS VL: DIQMTQSPSSLSASVGDRVTITCQASQDITNYLNWYQQKPGKAPKLLIYDASNLETGVPSRFSGSGSGTDFTFTISSLQPEDIATYNCQQCENFPITFGQGTRLEIKR",Kd,ErbB3 [4],0.15 nM
same,EC50,ErbB3 [5],0.28 nM
same,EC50,ErbB3 [6],0.67 nM
"DVD306 ErbB3 arm (antibody, V domains shown, DVD-Ig inner) VH: EVQLVESGGGLVQPGGSLRLSCAASGFTFSIYSMNWVRQAPGKGLEWVSYISSSSSTIYYADSVKGRFTISRDNAKNSLYLQMNSLRDEDTAVYYCARDRGDFDAFDIWGQGTMVTVSS VL: DIQMTQSPSSLSASVGDRVTITCQASQDITNYLNWYQQKPGKAPKLLIYDASNLETGVPSRFSGSGSGTDFTFTISSLQPEDIATYNCQQCENFPITFGQGTRLEIKR",EC50,ErbB3 [5],151 nM
same,EC50,ErbB3 [6],> 10 nM
"DVD305 ErbB3 arm (antibody, V domains shown, DVD-Ig outer) VH: EVQLVESGGGLVQPGGSLRLSCAASGFTFSIYSMNWVRQAPGKGLEWVSYISSSSSTIYYADSVKGRFTISRDNAKNSLYLQMNSLRDEDTAVYYCARDRGDFDAFDIWGQGTMVTVSS VL: DIQMTQSPSSLSASVGDRVTITCQASQDITNYLNWYQQKPGKAPKLLIYDASNLETGVPSRFSGSGSGTDFTFTISSLQPEDIATYNCQQCENFPITFGQGTRLEIKR",Kd,ErbB3 [4],0.0603 nM
same,EC50,ErbB3 [5],0.44 nM
same,EC50,ErbB3 [6],1.16 nM
"DVD002 CD19 arm (antibody, V domains shown, DVD-Ig outer) VH: QVQLQQSGAELVRPGSSVKISCKASGYAFSSYWMNWVKQRPGQGLEWIGQIWPGDGDTNYNGKFKGKATLTADESSSTAYMQLSSLASEDSAVYFCARRETTTVGRYYYAMDYWGQGTSVTVSS VL: DILLTQTPASLAVSLGQRATISCKASQSVDYDGDSYLNWYQQIPGQPPKLLIYDASNLVSGIPPRFSGSGSGTDFTLNIHPVEKVDAATYHCQQSTEDPWTFGGGTKLEIKR",EC50,CD19,0.07 nM
"DVD001 CD19 arm (antibody, V domains shown, DVD-Ig inner) VH: QVQLQQSGAELVRPGSSVKISCKASGYAFSSYWMNWVKQRPGQGLEWIGQIWPGDGDTNYNGKFKGKATLTADESSSTAYMQLSSLASEDSAVYFCARRETTTVGRYYYAMDYWGQGTSVTVSS VL: DILLTQTPASLAVSLGQRATISCKASQSVDYDGDSYLNWYQQIPGQPPKLLIYDASNLVSGIPPRFSGSGSGTDFTLNIHPVEKVDAATYHCQQSTEDPWTFGGGTKLEIKR",EC50,CD19,12.9 nM
"DVD014 CD19 arm (antibody, V domains shown, DVD-Ig outer) VH: QVQLQQSGAELVRPGSSVKISCKASGYAFSSYWMNWVKQRPGQGLEWIGQIWPGDGDTNYNGKFKGKATLTADESSSTAYMQLSSLASEDSAVYFCARRETTTVGRYYYAMDYWGQGTSVTVSS VL: DILLTQTPASLAVSLGQRATISCKASQSVDYDGDSYLNWYQQIPGQPPKLLIYDASNLVSGIPPRFSGSGSGTDFTLNIHPVEKVDAATYHCQQSTEDPWTFGGGTKLEIKR",EC50,CD19,0.12 nM
"DVD013 CD19 arm (antibody, V domains shown, DVD-Ig inner) VH: QVQLQQSGAELVRPGSSVKISCKASGYAFSSYWMNWVKQRPGQGLEWIGQIWPGDGDTNYNGKFKGKATLTADESSSTAYMQLSSLASEDSAVYFCARRETTTVGRYYYAMDYWGQGTSVTVSS VL: DILLTQTPASLAVSLGQRATISCKASQSVDYDGDSYLNWYQQIPGQPPKLLIYDASNLVSGIPPRFSGSGSGTDFTLNIHPVEKVDAATYHCQQSTEDPWTFGGGTKLEIKR",EC50,CD19,7.29 nM
"AB062 (antibody, V domains shown) VH: QVQLQQWGAGLLKPSETLSLTCAVYGGSFSGYYWSWIRQPPGKGLEWIGEINHSGSTNYNPSLKSRVTISVETSKNQFSLKLSSVTAADTAVYYCARDKWTWYFDLWGRGTLVTVSS VL: not shown",Kd,ErbB3 [4],1.36 nM
same,EC50,ErbB3 [5],1.93 nM
same,EC50,ErbB3 [6],0.26 nM
"AB010 (antibody, V domains shown) VH: QVQLVQSGAEVKKPGASVKVSCKASGYTFTSYDINWVRQATGQGLEWMGWMNPNSGNTGYAQKFQGRVTMTRNTSISTAYMELSSLRSEDTAVYYCARDPYYYYYGMDVWGQGTTVTVSS VL: QSVLTQPPSVSAAPGQKVTISCSGSSSNIENNHVSWYQQLPGTAPKLLIYDNNKRPSGIPDRFSGSKSGTSATLGITGLQTGDEADYYCETWDTSLSAGRVFGGGTKLTVLG",EC50,IGF2 [7],18.1 nM and 10 nM
same,EC50,IGF2 [8],10 nM and 18.1 nM
same,Kd,IGF2 [9],< 0.000299 nM and 0.000423 nM
same,EC50,IGF1 [10],4.8 nM
same,Kd,IGF1 [11],0.388 nM
same,EC50,IGF1 [12],4.77 nM
"DVD257 DLL4 arm (antibody, DVD-Ig outer) chain 1: EVQLVESGGGLVQPGGSLRLSCAASGFTFTDNWISWVRQAPGKGLEWVGYISPNSGFTYYADSVKGRFTISADTSKNTAYLQMNSLRAEDTAVYYCARDNFGGYFDYWGQGTLVTVSS chain 2: DIQMTQSPSSLSASVGDRVTITCRASQDVSTAVAWYQQKPGKAPKLLIYSASFLYSGVPSRFSGSGSGTDFTLTISSLQPEDFATTYYCQQSYTGTVTFGQGTKVEIKR",EC50,DLL4 [13],0.28 nM
same,Kd,DLL4 [14],0.234 nM
same,IC50,DLL4 [15],0.38 nM
